Results from the supplement of paper PMC9112550, “Optimization of the antimicrobial peptide Bac7 by deep mutational scanning” (BMC Biology, 2022).

System: Escherichia coli TOP10
Experiment: shrunken log2 fold change of peptide-encoding DNA abundance (4.5 h post-induction vs induction); higher = less antimicrobial activity (less host growth inhibition)
Settings: time post-induction: 4.5 h; library: site-saturation at positions 5, 18, 19, 20
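Also: peptides expressed intracellularly from a pBAD plasmid library in pooled LB shake-flask culture, induced with 0.3% L-arabinose, DNA abundance read by NGS, three biological replicates, DESeq2 with apeglm shrinkage.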

Sequence | shrunken log2 fold change
RRIRCRPPRLPRPRPRPLITPRP | -0.125
RRIRPRPPRLPRPRPRPTSQPRP | 0.0453
RRIRTRPPRLPRPRPRPHGFPRP | -0.0139
RRIRYRPPRLPRPRPRPFFYPRP | -0.614
RRIRPRPPRLPRPRPRPQKQPRP | -0.294
RRIRGRPPRLPRPRPRPWLTPRP | 0.134
RRIRARPPRLPRPRPRPGMYPRP | -0.111
RRIRHRPPRLPRPRPRPFSNPRP | -1.09
RRIRTRPPRLPRPRPRPDNMPRP | -0.909
RRIRIRPPRLPRPRPRPSKMPRP | -1.18
RRIRKRPPRLPRPRPRPSGMPRP | 0.115
RRIRARPPRLPRPRPRPTQSPRP | 0.902
RRIRLRPPRLPRPRPRPSGRPRP | 0.448
RRIRWRPPRLPRPRPRPPPHPRP | 0.721
RRIRSRPPRLPRPRPRPDMLPRP | 0.304
RRIRWRPPRLPRPRPRPKEVPRP | 0.0717
RRIRYRPPRLPRPRPRPIAMPRP | -0.322
RRIRPRPPRLPRPRPRPIVLPRP | -0.772
RRIRKRPPRLPRPRPRPFDEPRP | 0.0269
RRIRRRPPRLPRPRPRPEHTPRP | -0.0248
RRIRARPPRLPRPRPRPKGIPRP | -0.0515
RRIRIRPPRLPRPRPRPHHYPRP | -0.429
RRIRVRPPRLPRPRPRPVQCPRP | -0.0156
RRIRKRPPRLPRPRPRPCDTPRP | 0.015
RRIRMRPPRLPRPRPRPRDGPRP | 2.69

Sequence | shrunken log2 fold change
RRIRRRPPRLPRPRPRPAKEPRP | 0.0389
RRIRVRPPRLPRPRPRPYTEPRP | -0.42
RRIRKRPPRLPRPRPRPQDMPRP | -0.036
RRIRSRPPRLPRPRPRPPNAPRP | 0.0817
RRIRTRPPRLPRPRPRPTQNPRP | 0.385
RRIRQRPPRLPRPRPRPLIQPRP | -0.228
RRIRHRPPRLPRPRPRPYCKPRP | -1.02
RRIRLRPPRLPRPRPRPENMPRP | -0.4
RRIRCRPPRLPRPRPRPFYLPRP | -0.564
RRIRMRPPRLPRPRPRPGRTPRP | 0.894
RRIRQRPPRLPRPRPRPCMLPRP | -0.239
RRIRLRPPRLPRPRPRPPGGPRP | 0.664
RRIRGRPPRLPRPRPRPAVSPRP | 0.573
RRIRDRPPRLPRPRPRPRDRPRP | 0.13
RRIRKRPPRLPRPRPRPTAMPRP | 0.358
RRIRWRPPRLPRPRPRPKSPPRP | 0.819
RRIRARPPRLPRPRPRPFGKPRP | 0.0252
RRIRPRPPRLPRPRPRPCALPRP | -0.0401
RRIRPRPPRLPRPRPRPTKEPRP | 0.193
RRIRCRPPRLPRPRPRPVENPRP | 0.112
RRIRYRPPRLPRPRPRPSTRPRP | -0.367
RRIRLRPPRLPRPRPRPHPIPRP | 0.0174
RRIRERPPRLPRPRPRPYAQPRP | -0.384
RRIRRRPPRLPRPRPRPYLFPRP | -0.305
RRIRPRPPRLPRPRPRPLKVPRP | -0.107

Sequence | shrunken log2 fold change
RRIRTRPPRLPRPRPRPHHPPRP | -0.135
RRIRSRPPRLPRPRPRPMYAPRP | -0.29
RRIRNRPPRLPRPRPRPPFWPRP | 0.196
RRIRARPPRLPRPRPRPTINPRP | -0.00779
RRIRCRPPRLPRPRPRPNIQPRP | -0.584
RRIRRRPPRLPRPRPRPKLIPRP | -0.395
RRIRNRPPRLPRPRPRPMGWPRP | -0.00822
RRIRGRPPRLPRPRPRPACQPRP | 0.883
RRIRWRPPRLPRPRPRPEGHPRP | 0.792
RRIRVRPPRLPRPRPRPGDAPRP | 0.0792
RRIRLRPPRLPRPRPRPMTRPRP | 0.314
RRIRDRPPRLPRPRPRPQEIPRP | -0.00905
RRIRCRPPRLPRPRPRPNHWPRP | -0.0209
RRIRNRPPRLPRPRPRPVACPRP | -0.0504
RRIRHRPPRLPRPRPRPREIPRP | 0.0735
RRIRRRPPRLPRPRPRPQLGPRP | 0.0467
RRIRDRPPRLPRPRPRPSGMPRP | -0.0709
RRIRRRPPRLPRPRPRPQQEPRP | -0.0236
RRIRGRPPRLPRPRPRPMHHPRP | 0.533
RRIRQRPPRLPRPRPRPYGKPRP | -0.217
RRIRKRPPRLPRPRPRPKPHPRP | 0.747
RRIRGRPPRLPRPRPRPMRVPRP | 1.65
RRIRYRPPRLPRPRPRPREDPRP | -0.126
RRIRWRPPRLPRPRPRPRDDPRP | 0.341
RRIRPRPPRLPRPRPRPLNIPRP | -0.809

Sequence | shrunken log2 fold change
RRIRQRPPRLPRPRPRPDFAPRP | -0.0596
RRIRDRPPRLPRPRPRPFMEPRP | -0.148
RRIRGRPPRLPRPRPRPVPDPRP | 0.958
RRIRGRPPRLPRPRPRPEHFPRP | 0.00955
RRIRWRPPRLPRPRPRPSFDPRP | 0.0774
RRIRHRPPRLPRPRPRPFSYPRP | -0.28
RRIRTRPPRLPRPRPRPQFQPRP | 0.183
RRIRQRPPRLPRPRPRPYQMPRP | -0.00133
RRIRNRPPRLPRPRPRPGMEPRP | -0.0302
RRIRQRPPRLPRPRPRPAAQPRP | -0.00152
RRIRVRPPRLPRPRPRPTQGPRP | 0.291
RRIRWRPPRLPRPRPRPHRRPRP | -0.0988
RRIRPRPPRLPRPRPRPMFCPRP | -0.332
RRIRGRPPRLPRPRPRPYYQPRP | -0.537
RRIRWRPPRLPRPRPRPAPEPRP | 0.603
RRIRLRPPRLPRPRPRPFVSPRP | -0.281
RRIRTRPPRLPRPRPRPIREPRP | -0.0125
RRIRFRPPRLPRPRPRPYELPRP | 0.0447
RRIRTRPPRLPRPRPRPAYNPRP | -0.355
RRIRNRPPRLPRPRPRPSHAPRP | -0.859
RRIRKRPPRLPRPRPRPGGEPRP | 0.753
RRIRNRPPRLPRPRPRPAHIPRP | 0.00258
RRIRMRPPRLPRPRPRPWIHPRP | -0.0313
RRIRDRPPRLPRPRPRPVNSPRP | 0.0226
RRIRCRPPRLPRPRPRPGKVPRP | 0.181

Sequence | shrunken log2 fold change
RRIRHRPPRLPRPRPRPMQNPRP | -0.0144
RRIRFRPPRLPRPRPRPMSNPRP | 0.0556
RRIRVRPPRLPRPRPRPSVHPRP | -0.0573
RRIRRRPPRLPRPRPRPSVIPRP | -0.00654
RRIRWRPPRLPRPRPRPRMPPRP | 0.395
RRIRARPPRLPRPRPRPNYVPRP | -0.35
RRIRPRPPRLPRPRPRPPQYPRP | 0.189
RRIRVRPPRLPRPRPRPTFMPRP | -0.0669
RRIRYRPPRLPRPRPRPLPWPRP | -0.132
RRIRERPPRLPRPRPRPPSAPRP | 0.632
RRIRKRPPRLPRPRPRPCLNPRP | 0.00932
RRIRIRPPRLPRPRPRPQQYPRP | -0.808
RRIRFRPPRLPRPRPRPCCSPRP | -0.139
RRIRPRPPRLPRPRPRPQLHPRP | -0.0604
RRIRLRPPRLPRPRPRPRWCPRP | -0.0806
RRIRWRPPRLPRPRPRPDGLPRP | 0.393
RRIRNRPPRLPRPRPRPTCRPRP | 0.142
RRIRARPPRLPRPRPRPFRFPRP | 0.0596
RRIRSRPPRLPRPRPRPLNAPRP | 0.213
RRIRHRPPRLPRPRPRPWDVPRP | -0.0319
RRIRKRPPRLPRPRPRPLWHPRP | 0.0951
RRIRVRPPRLPRPRPRPCRPPRP | 0.00447
RRIRERPPRLPRPRPRPEMWPRP | 0.452
RRIRSRPPRLPRPRPRPGDWPRP | 0.223
RRIRVRPPRLPRPRPRPNFFPRP | 0.0488

Sequence | shrunken log2 fold change
RRIRLRPPRLPRPRPRPSHHPRP | -0.319
RRIRDRPPRLPRPRPRPFMRPRP | 0.05
RRIRPRPPRLPRPRPRPYPWPRP | -0.345
RRIRQRPPRLPRPRPRPVFFPRP | 0.0102
RRIRGRPPRLPRPRPRPYECPRP | -0.075
RRIRWRPPRLPRPRPRPEDQPRP | 0.475
RRIRSRPPRLPRPRPRPNYMPRP | -0.756
RRIRIRPPRLPRPRPRPGHLPRP | -0.101
RRIRPRPPRLPRPRPRPIDVPRP | -0.148
RRIRYRPPRLPRPRPRPQNLPRP | -0.0535
RRIRERPPRLPRPRPRPALIPRP | 0.129
RRIRWRPPRLPRPRPRPGFFPRP | 0.26
RRIRRRPPRLPRPRPRPCKHPRP | 0.00883
RRIRGRPPRLPRPRPRPQCAPRP | 1.11
RRIRGRPPRLPRPRPRPRGMPRP | 0.939
RRIRERPPRLPRPRPRPHPQPRP | -0.103
RRIRDRPPRLPRPRPRPVGTPRP | -0.0472
RRIRQRPPRLPRPRPRPKVYPRP | -0.177
RRIRNRPPRLPRPRPRPWSPPRP | -0.245
RRIRCRPPRLPRPRPRPPQWPRP | 0.446
RRIRQRPPRLPRPRPRPYIVPRP | 0.04
RRIRYRPPRLPRPRPRPCTLPRP | 0.0191
RRIRMRPPRLPRPRPRPCHPPRP | 0.00663
RRIRIRPPRLPRPRPRPESGPRP | -0.135
RRIRQRPPRLPRPRPRPNIPPRP | -0.262
